Measurements: PMC6141027

Molecular target: griffithsin (GRFT)
Assay: AUC

Substance: griffithsin (GRFT) (natural protein)
- stoichiometry N: 2
